Measurements from the supplement of paper PMC10598134.
± gives the standard deviation.

Test: collision cross section of modified peptide (TIMS, N2, iRT-aligned); higher = larger / more extended gas-phase ion
In short: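 Collision cross section was derived from the Mason-Schamp equation. Each value averages 1–3 technical replicates of the most abundant feature per charge state, measured on a timsTOF Pro/HT in dda-PASEF mode (nitrogen, ~2.4 mbar) after a 120-min nanoflow C18 gradient at 60 °C. Synthetic peptide pools (~100 fmol/µL in 2% acetonitrile/0.1% formic acid, iRT standard spiked 1:40) were identified with MaxQuant, and 1/K0 was calibrated with three reference ions and aligned run-wise to the median iRT peptide deviation.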

[1] = charge state: 2, modification: hydroxyisobutyryl
[2] = charge state: 2, modification: GlyGly (K)
[3] = charge state: 3, modification: GlyGly (K)
[4] = charge state: 2, modification: Formyl
[5] = charge state: 3, modification: Succinyl
[6] = charge state: 2, modification: Glutarylation
[7] = charge state: 3, modification: Glutarylation
[8] = charge state: 2, modification: Methyl (K)
[9] = charge state: 3, modification: Methyl (K)
[10] = charge state: 3, modification: Formyl
[11] = charge state: 2, modification: Acetyl (K)
[12] = charge state: 2, modification: Succinyl
[13] = charge state: 3, modification: Acetyl (K)
[14] = charge state: 3, modification: Citrullination (R)

HELQANCYEEVKDR [_HELQANCYEEVK(Butyryl)DR_]
collision cross section (charge state: 2, modification: Butyryl): 452.47 ± 0.51 Å²
collision cross section (charge state: 3, modification: Butyryl): 502.99 ± 3.8 Å²

SSFAYKDQNENR [_SSFAYK(hydroxyisobutyryl)DQNENR_]
collision cross section [1]: 405.04 ± 0.3 Å²

VPTTEKPTVTVNFR [_VPTTEK(GlyGly (K))PTVTVNFR_]
collision cross section [2]: 431.31 ± 0.85 Å²
collision cross section [3]: 523.98 ± 3.9 Å²

VDVEVPDVSLEGPEGKLK [_VDVEVPDVSLEGPEGK(Formyl)LK_]
collision cross section [4]: 460.51 ± 1.4 Å²

IHNAENIQPGEQKYEYK [_IHNAENIQPGEQK(Succinyl)YEYK_]
collision cross section [5]: 525.87 ± 2 Å²

FSAYIKNSNPALNDNLEK [_FSAYIK(Malonyl)NSNPALNDNLEK_]
collision cross section (charge state: 2, modification: Malonyl): 479.79 ± 4.5 Å²
collision cross section (charge state: 3, modification: Malonyl): 527.7 ± 2.3 Å²

VNALKNLQVK [_VNALK(Trimethyl (K))NLQVK_]
collision cross section (charge state: 2, modification: Trimethyl (K)): 379.91 ± 0.019 Å²
collision cross section (charge state: 3, modification: Trimethyl (K)): 418.46 ± 2.4 Å²

ALASIDSKLNQAK [_ALASIDSK(Gluratylation)LNQAK_]
collision cross section [6]: 406.86 ± 0.54 Å²
collision cross section [7]: 470.57 Å²

SPSDSGYSYETIGKTTK [_SPSDSGYSYETIGK(Gluratylation)TTK_]
collision cross section [6]: 456.74 ± 1.5 Å²
collision cross section [7]: 531.96 ± 0.12 Å²

ALLQAKASGK [_ALLQAK(Gluratylation)ASGK_]
collision cross section [6]: 353.63 ± 0.71 Å²

SPASDTYIVFGEAK [_SPASDTY(Phospho (Y))IVFGEAK_]
collision cross section (charge state: 2, modification: Phospho (Y)): 410.05 Å²

DHLSDKESK [_DHLSDK(Methyl (K))ESK_]
collision cross section [8]: 345.4 ± 1.5 Å²
collision cross section [9]: 413.72 ± 4.7 Å²

VGLQVVAVKAPGFGDNR [_VGLQVVAVK(hydroxyisobutyryl)APGFGDNR_]
collision cross section [1]: 453.58 ± 0.89 Å²
collision cross section (charge state: 3, modification: hydroxyisobutyryl): 502.92 ± 2.8 Å²

SSFAYKDQNENR [_SSFAYK(Dimethyl (K))DQNENR_]
collision cross section (charge state: 2, modification: Dimethyl (K)): 406.82 ± 0.47 Å²
collision cross section (charge state: 3, modification: Dimethyl (K)): 455.28 ± 0.51 Å²

SSGPGGQNVNKVNSK [_SSGPGGQNVNK(Formyl)VNSK_]
collision cross section [4]: 398.34 ± 0.83 Å²
collision cross section [10]: 435.41 ± 4.1 Å²

VGEFSGANKEK [_VGEFSGANK(Acetyl (K))EK_]
collision cross section [11]: 363.56 ± 0.5 Å²

PSVSTKLISK [_PSVSTK(GlyGly (K))LISK_]
collision cross section [2]: 370.29 ± 0.38 Å²
collision cross section [3]: 434.33 ± 3 Å²

IQTKAGEATVK [_IQTK(Formyl)AGEATVK_]
collision cross section [4]: 359.75 ± 0.38 Å²

VNIGQGSHPQKVK [_VNIGQGSHPQK(Succinyl)VK_]
collision cross section [12]: 423.92 ± 1.1 Å²
collision cross section [5]: 481.33 ± 2 Å²

ATVASSTQKFQDLGVK [_ATVASSTQK(Acetyl (K))FQDLGVK_]
collision cross section [11]: 445.22 ± 2.2 Å²
collision cross section [13]: 493.63 ± 0.33 Å²

GRGLPGPAESLR [_GR(Methyl (R))GLPGPAESLR_]
collision cross section (charge state: 3, modification: Methyl (R)): 459.68 ± 1.5 Å²

VYPSSLSK [_VY(Nitro (Y))PSSLSK_]
collision cross section (charge state: 2, modification: Nitro (Y)): 327.32 ± 0.71 Å²

SDDESSQKDIK [_SDDESSQK(Succinyl)DIK_]
collision cross section [12]: 378.1 ± 1 Å²

GFCFITYTDEEPVKK [_GFCFITYTDEEPVK(Acetyl (K))K_]
collision cross section [11]: 451.75 ± 3.1 Å²

PSIHGGSGGRGVSVSSAR [_PSIHGGSGGR(Citrullination (R))GVSVSSAR_]
collision cross section [14]: 486.3 ± 5 Å²

VGVEVPDVNIEGPEGKLK [_VGVEVPDVNIEGPEGK(Acetyl (K))LK_]
collision cross section [11]: 456.04 ± 2.4 Å²
collision cross section [13]: 513.89 Å²

GDIGETGVPGAEGPR [_GDIGETGVPGAEGP(Hydroxyproline)R_]
collision cross section (charge state: 2, modification: Hydroxyproline): 384.38 ± 0.27 Å²

SGFGKFER [_SGFGK(Succinyl)FER_]
collision cross section [12]: 336.55 ± 1.3 Å²

ITESVAETAQTIKK [_ITESVAETAQTIK(Formyl)K_]
collision cross section [4]: 415.52 ± 0.56 Å²
collision cross section [10]: 507.5 ± 1.5 Å²

IISSIEQKEENK [_IISSIEQK(Succinyl)EENK_]
collision cross section [12]: 408.03 ± 0.55 Å²
collision cross section [5]: 479.06 ± 2.5 Å²

FSAYIKNSNPALNDNLEK [_FSAYIK(Biotin)NSNPALNDNLEK_]
collision cross section (charge state: 2, modification: Biotin): 499.7 ± 0.61 Å²
collision cross section (charge state: 3, modification: Biotin): 526.24 Å²

TLHLSHLNRFPAR [_TLHLSHLNR(Citrullination (R))FPAR_]
collision cross section [14]: 509.04 ± 32 Å²

FGTINIVHPKLGSYTK [_FGTINIVHPK(Formyl)LGSYTK_]
collision cross section [4]: 468.22 ± 1.4 Å²
collision cross section [10]: 546.15 ± 1.5 Å²

DESFLGKLGGTLAR [_DESFLGK(Methyl (K))LGGTLAR_]
collision cross section [8]: 408.12 ± 0.81 Å²
collision cross section [9]: 471.83 ± 2.8 Å²
